Assay results: patent US20060281899A1, “Mutants of biotin binding protein” (priority 2002, published 2006)
Positions count from the first letter of the chain named. Names may count otherwise. “And” between values parts separate entries of the source, which are not always exact repeats. Identical values can stand only once.

B1: AVR1: Recombinant chicken avidin-related protein 1, produced in Sf9 insect cells (protein, UniProt O13153 25-150, looked up)
Avidin-related protein 1: ARKCSLTGKWDNDLGSIMTIGAVNDNGEFNGTYITAVADNPGNITRSPLLGIQHKRACQPTFGFTVHWNFSESTSVFVGQCFVDKSGKEVLKTKWLQRLAVDDISDDWKATRVGNNDFTRQRTVEE
B2: AVR6: Recombinant chicken avidin-related protein 6, produced in Sf9 insect cells (protein, UniProt P56735 25-150, looked up)
Avidin-related protein 6: B1 Avidin-related protein 1 with K9E, D13N, T45K, R46L, K85R, N115Y, D117N
B3: AVR7: Recombinant chicken avidin-related protein 7, produced in Sf9 insect cells (protein, UniProt P56736 25-150, looked up)
Avidin-related protein 7: B1 Avidin-related protein 1 with K9E, D13N, I17N, T45K, R46L, V83I, K85R, N115Y, D117N
B4: AVR2: Recombinant chicken avidin-related protein 2, produced in Sf9 insect cells (protein, UniProt P56732 25-150, looked up)
Avidin-related protein 2: B1 Avidin-related protein 1 with K9E, N30D, R46L, C58S, K85R, K109I, R122H
B5: AVR3: Recombinant chicken avidin-related protein 3, produced in Sf9 insect cells (protein, UniProt P56733 25-150, looked up)
Avidin-related protein 3: ARKCSLTGKWTNNLGSIMTIRAVNSRGEFAGTYLTAVADNPGNIKLSPLLGIQHKRACQPTFGFTVHWNFSESTSVFVGQCFIDRSGKEVLKTKWLQRLAVDDISDDWKATRVGYNNFTRQRTVEE
B6: AVR4/5(N43E): AVR4/5 mutant, residue 43 changed to glutamate to avoid glycosylation (protein, UniProt P56734 25-150, looked up, variant N43E)
Avidin-related protein 4/5: ARKCSLTGKWTNNLGSIMTIRAVNSRGEFTGTYLTAVADNPGEITLSPLLGIQHKRASQPTFGFTVHWNFSESTTVFTGQCFIDRNGKEVLKTMWLLRSSVNDISYDWKATRVGYNNFTRLCTVEE

Legend:
Isoelectric focusing = type: physicochemical
Description: (§1) The heat stability of the AVRs was studied by using an SDS-PAGE-based method (Bayer, E. A., Ehrlich-Rogozinski, S. and Wilchek, M. (1996) Electrophoresis 17, 1319-1324). In this method, each protein sample was divided into two fractions one of which was kept biotin-free and the other was supplemented with an excess of biotin. The samples were then mixed with denaturing SDS-PAGE sample buffer (containing β-mercaptoethanol) and incubated at a given temperature for 20 minutes. After heat treatment, the samples were subjected to SDS-PAGE and visualised by staining with Coomassie brilliant blue. The relative proportions of tetrameric and monomeric forms of the AVR proteins (with avidin as the control) were detected. A similar assay, with β-mercaptoethanol omitted from the sample buffer, was performed to examine the presence of intersubunit disulfide-bridges. Sensitivity to proteinase K was studied both in the absence and in the presence of biotin as described (Laitinen, O. H., Airenne, K. J., Marttila, A. T., Kulik, T., Porkka, E., Bayer, E. A., Wilchek, M. and Kulomaa, M. S. (1999) FEBS Lett. 461, 52-8). The isoelectric point of each AVR was determined by isoelectric focusing as previously reported (Marttila, A. T., Airenne, K. J., Laitinen, O. H., Kulik, T., Bayer, E. A., Wilchek, M. and Kulomaa, M. S. (1998) FEBS Lett. 441, 313-317). The glycosylation patterns of the AVR proteins were studied by treating the proteins with Endo Hf and PNGase F glycosidase according to the manufacturer's instructions (New England Biolabs, Mass., USA).

[1] = Non-reducing SDS-PAGE thermostability, oligomeric forms after boiling; type: physicochemical; details: boiled 20 minutes
Description: as §1

[2] = IASyS reversibility of biotin binding of avidin and AVRs; details: biotin cuvette, after addition of free biotin (0.17 mg/ml)
Description: The reversibility of biotin binding was studied as follows: Avidin and the AVRs were allowed to bind to a biotin-coated cuvette. After measuring the initial binding (A) as described above, biotin-saturated (0.17 mg/ml) buffer was injected into the cuvette and the amount of proteins remaining bound was measured until no dissociation was seen, again as compared to the negative control cuvette (B). The measurement time was at least 20 minutes. The percent reversibility was calculated as follows: reversibility (%)=100*(A−B)/A. A−B is the amount of liberated proteins after biotin adding.

[3] = IASyS optical biosensor, AVR binding in a biotin cuvette; details: for kass / kdiss: biotin cuvette (as for Kd of these proteins); for Kd: biotin cuvette, 20.0° C.
Description: The biotin-binding characteristics of the AVR proteins were studied as previously described using the IASyS optical biosensor (Marttila, A. T., Airenne, K. J., Laitinen, O. H., Kulik, T., Bayer, E. A ., Wilchek, M. and Kulomaa, M. S. (1998) FEBS Lett. 441, 313-317; Laitinen, O. H., Airenne, K. J., Marttila, A. T., Kulik, T., Porkka, E., Bayer, E. A., Wilchek, M. and Kulomaa, M. S. (1999) FEBS Lett. 461, 52-8). Affinities were measured for 2-iminobiotin or biotin at 20.0° C. using a stirring power of 100%. Briefly, the protein under study in biotin-free buffer was allowed to bind to the biotin-coated surface of the IASyS cuvette. As a negative control, the protein under study was saturated with excess biotin prior to (and was also maintained under biotin excess upon) addition to the cuvette. Under these conditions, residual binding to the biotin surface of the cuvette could be regarded as unspecific, and was used as a measure of baseline variation. Binding equilibrium in the experimental cuvette was considered to be attained after no binding was detected as compared to negative control.
The actual dissociation constants (Kd) were calculated for the AVRs according to the kass and kdiss rates measured in a separate assay in different protein concentrations (varying between 10 μM and 100 pM) (Table 4 and FIG. 6). The binding seemed to follow two-order or even more complex kinetics. However, the first 1000 seconds of the binding fitted considerably well to the bi-phasic curve. All measured dissociation rate constants (kdiss) followed the first-order kinetics. Because of the extremely high binding, affinities of the AVRs for biotin could not be determined except for AVR1, AVR2 and AVR7. Binding to 2-iminobiotin was determined only for AVR4/5, and it was similar to that of avidin. The lack of binding for the other AVRs was surprising, since most of them were purified using 2-iminobiotin agarose.

[4] = Differential scanning calorimetry of avidin and AVR4/5 forms; type: physicochemical; details: 50 mM sodium phosphate pH 7.0, 100 mM NaCl
Description: The thermodynamics of the heat-induced unfolding of the proteins were studied using DSC. The transition midpoint of heat-induced denaturation (Tm) of the avidin and different AVR4/5 forms was studied using a Nano II differential scanning calorimeter (Calorimetric Sciences Corporation, Provo, Utah, USA). The reference cell was filled with buffer whereas the sample cell was filled with proteins dissolved in 50 mM sodium phosphate buffer, pH 7.0 containing 100 mM NaCl. Avidin and AVR4/5(C124S) were also analyzed in 50 mM Na-acetate pH 4.0 containing 100 mM NaCl. Furthermore, AVR4/5 was analyzed in the presence of 2-mercaptoethanol (0.4% v/v). The samples (1.6-9.6 μM) were analyzed both in the absence and presence of a three fold molar excess of biotin/subunit. All samples were degassed before being loaded into the DSC. The thermograms were recorded as a function of temperature; between 25 and 130° C. at a rate of 55.6° C./h (Gonzalez, M., Argarana, C. E. & Fidelio, G. D. (1999) Biomol. Eng. 16, 67-72; Nordlund, H. R., Laitinen, O. H., Uotila, S. T., Nyholm, T., Hytönen, V. P., Slotte, J. P. & Kulomaa, M. S. (2003) J. Biol. Chem. 278, 2479-2483). Data was analyzed using Microcal Origin 6.0 and Cpcalc 2.1 (Applied Thermodynamics, Hunt Valley, Md.). The change in heat capacity upon unfolding (ΔCp) was measured for avidin and AVR4/5(C124S) using DSC data from measurements in pH 4.0 and 7.0. ΔCp was then obtained from the slope of ΔH vs. Tm (Liu, Y. & Sturtevant, J. M. (1996) Biochemistry 35, 3059-3062).

[5] = IAsys optical biosensor, AVR4/5 forms binding to 2-iminobiotin surface; details: for Kd: 20° C.
Description: The biotin-binding characteristics of the different avidins were studied using an IAsys optical biosensor at 20° C. The reversibility of binding and binding affinities to the 2-iminobiotin surface in 50 mM borate buffer (pH 9.5, 1 M NaCl) were measured as previously reported (Laitinen, O. H., Hytönen, V. P., Ahlroth, M. K., Pentikäinen, O. T., Gallagher, C., Nordlund, H. R., Ovod, V., Marttila, A. T., Porkka, E., Heino, S., Johnson, M. S., Airenne, K. J. & Kulomaa, M. S. (2002) Biochem. J. 363, 609-617).
Briefly, The 2-iminobiotin ligand was immobilized onto the carboxymethyldextran surface of a cuvette using N-hydroxysuccinimide activation. Binding of various concentrations of avidin or avidin mutants onto 2-iminobiotinylated surface were measured in a 50 mM borate buffer (pH 9.5) containing 1 M NaCl at 20° C. The iminobiotin cuvettes were regenerated with 20 mM HCl. The kinetic rate constants for association (kass) and dissociation (kdiss) were calculated using the Fast Fit program package (Affinity Sensors). The obtained rate constants were used to calculate Kd(rel) according to Kd=kdiss/kass. Equilibrium data obtained from measurements with different protein concentrations were used to calculate the dissociation constant Kd(eq).

[6] = IAsys reversibility of binding to biotin, AVR4/5 forms; details: biotin cuvette
Description: The biotin-binding characteristics of the different avidins were studied using an IAsys optical biosensor at 20° C. […] H., Hytönen, V. P., Ahlroth, M. K., Pentikäinen, O. T., Gallagher, C., Nordlund, H. R., Ovod, V., Marttila, A. T., Porkka, E., Heino, S., Johnson, M. S., Airenne, K. J. & Kulomaa, M. S. (2002) Biochem. J. 363, 609-617).

[7] = read-out: Kd calculated directly from the binding curves
[8] = read-out: Kd calculated from the equilibrium response data

Molecule	pI by isoelectric focusing (Isoelectric focusing)	Dimeric form, relative proportion [1]	Monomeric form, relative proportion [1]	Tetrameric form, relative proportion [1]	Reversibility of biotin binding [2]	kass [3]	kdiss [3]	Kd [3, 7]	Kd [3, 8]	DSC Tm(−biotin) [4]	kass [5]	kdiss [5]	Kd ([5]; 50 mM borate pH 9.5, 1 M NaCl, read-out: Kd detected from the equilibrium response data)	Kd ([5]; pH 9.5, 1 M NaCl, read-out: Kd detected directly from the binding curves)	Reversibility of binding to biotin [6]
B1	≈ 7	40 percentage	40 percentage	20 percentage	18% and 18 ± 10%	(5.5 ± 1.5) × 10^4 M^−1 s^−1	(2.4 ± 0.8) × 10^−3 s^−1	44 nM	100 nM						
B2	≈ 7	50 percentage	50 percentage		5 ± 3%				< 10 nM						
B3	≈ 7	20 percentage	80 percentage		3 ± 3%	(1.8 ± 0.2) × 10^5 M^−1 s^−1			4.5 nM						
B4	≈ 5		100 percentage		94 ± 3%	(1.8 ± 0.1) × 10^4 M^−1 s^−1	(4.6 ± 1.1) × 10^−3 s^−1	52 nM	1700 nM						
B5	≈ 10	50 percentage	50 percentage		3 ± 2%				< 10 nM						
B6										104.9 ± 0.3 °C	(1.3 ± 0.3) × 10^4 M^−1s^−1	(1.8 ± 0.8) × 10^−3 s^−1	110 nM	140 nM	3 ± 2%
